Source: the DeepSol protein solubility set

Test: soluble on expression in E. coli; label from the status in PepcDB or PDB records

| Sequence | soluble on expression in E. coli |
| --- | --- |
| MKFILRLGLALLTGFVSVSTASAQAYGTADTNAPELRVPKSVQPAFDYWMRDTWATLGPDGYYYITGTTSTPDRHFPGQRHCWDWNDGLYLWRSKDLKIWEAMGRIWSMEKDGTWQKDPKVYKEGEKYAKKSINNDPMDNRFHAVWAPEMHYIKSAKNWFIVACMNQSAGGRGSFILRSTTGKPEGPYENIEGNEDKAIFPNIDGSLFEDTDGTVYFVGHNHYIARMKPDMSGLAEEIKTLKESKYSPEPYVEGAFIFKYDGKYHLVQAIWAHRTVKGDTYVEKEGLTNKKTRYSYDCIIATADNVYGPYGKRYNAITGGGHNNLFQDKDGNWWATMFFNPRGAQAAEYKVTCRPGLIPMLYENGKFKPNHNYQAK | not soluble |
| MSLSAFLPSLDTPVALLDMPRMQRNIQRMQQRMNELGVRLRPHVKTSKSLPVIQAQMAAGARGVTVSTLKEAEHCFAEGISDVFYAVAIAPGKLDQALKLRRIGCRLSILTDSVVAAQAIVAFGQQHDEQFQVWIEIDCDGHRSGLTVEDNALIEVARTLVEGGMQLRGVMTHAGSSYDLDTPEALQALAEQERLLCVSAAERIRQAGLPCPEVSIGSTPTALSAQGLAGVTEVRAGVYVFFDLVMHNIGVCGADEGHHHHHH | not soluble |
| MRRLVLLLALCFSCSFAQYGLYGSGYNGYGGYGSGYGTGYGMGYGMGYPMNPYMNQVYGYGSNPMMSGGGGMYGAGGCMDLSPQCSVWASTGQCSTNPMMMRQTCAMSCGTCSTGVGALGSMGSYNPFGGYGGMGYPQAGLLDPLAQFIGRSIYETGILRQPTPSSSSKSIGILTKAKSEQLPSR | not soluble |
| MSLNNTPRYPQRVRNDLRFRELTVLRVERISAGFQRIVLGGEALDGFTSRGFDDHSKLFFPQPDAHFVPPTVTEEGIVWPEGPRPPSRDYTPLYDELRHELAIDFFIHDGGVASGWAMQAQPGDKLTVAGPRGSLVVPEDYAYQLYVCDESGMPALRRRLETLSKLAVKPQVSALVSVRDNACQDYLAHLDGFNIEWLAHDEQAVDARLAQMQIPADDYFIWITGEGKVVKNLSRRFEAEQYDPQRVRAAAYWHAKEGGSHHHHHH | soluble |
| MISNDAIRRNMAVFSMSVVSKLTDLTPRQIRYYETHELIKPERTEGQKRLFSLNDLERLLEIKSLLEKGFNIKGIKQIIYDSQEHLTTDEQEIRKKMIVDATQKPIGETLPINRGDLSRFIK | not soluble |
| MSAKNVLKMANRNSANKRDILGDLLSLSSNKTVNLNEMAHGQGKRKMASIDGQKENPKRIKMSQHMTAKEVKIPLLRTPDEEARKIEKLRREARIKRSKEVHYDAAEQQQIMMNYEWTVQMEEQEKLRKKVEKKH | not soluble |
| MYKRAEYHVITDRLKDRRRFIQVVMGARQIGKSTVVKQVLKDLDAPYQFFSADNVPTVNGAWISDCWAAVRSLKEAKEWESIILVIDEIQKIANWSEVVKKEWDDDTFHDRNIKVLLLGSSRVLLEKGLSESLAGRFEEIRMSHWSYQEMKDCFGFSLNQYLFYGGYPGAASLTDDDDRFSQYIQAAIIEATINKDILMGTPIGKPALLRRTFELGAAYSGELLSLNKMLGSLQDAGNTVTLAGYINLLDESGLLCGLQKFGYDMARRKASIPKLQVYNNALKMVYSPFTFEQAMLDRKSWGRIFESGIGAYLVSQAFVHRFEVFYWRERDDEVDFVLRKKGSVVAIEVKSNAEKRTDGLDKFSHSFKPQSAFILGDGGVRAEDFLSMDIRKLF | not soluble |
| MEAEGFPRLFHNFENVPEPKECKKVGSVPSYLTGTMLRNGPGMFTVGEEEYKHWFDGLGFMQRYHFEDGKMFYSARYLESEAYTKTVEAQRIVAGTFGTLSFPDPCKTIFSKYFSEFMNHSEKHDNSNVAFTPVGDSLYACTETPHMYRVDLDTLKTLEAADFSKFVAVHSCTAHQLYDENGDVYNIGSRFGPESAHVFTVTKNPKNQKSENDHSWEHTSKIGEIKASDPLYPTYMHSFGMSENYLVMFESPVRLHLQKYLLSEFVRATYHDCLEWHGDKDVSIFILNKKTGEQLPLTLKMNPFFTFHHANTFEKDGCLVMDYCRIENAGKFDTLLISNMKTGEFQYDAKFLPYLTRVIVPMSVSSSAKPGDNLLKSVPWASGCTSILQDDGSIRLTERRVCETSMEFPRYHWEKINMKEYRYVFGSTVFGRIDGNLAGVVKADLKFGNHLIWNRENPHQICGEPIFVPNPEGIEEDDGILIVPIMSSSEKQVPFVLILDAKTLEETARFEIPEARIPLGFHAFYKPKN | not soluble |
| MSLSMITLWGRNNSTNVKKVLLTLEELELPYEQILAGREFGINHDADFLAMNPNGLVPLLRDDESDLILWESNAIVRYLAAQYGQKRLWIDSPARRAEAEKWMDWANQTLSNAHRGILMGLVRTPPEERDQAAIDASCKECDALFALLDAELAKVKWFSGDEFGVGDIAIAPFIYNLFNVGLTWTPRPNLQRWYQQLTERPAVRKVVMIPVSEGHHHHHH | soluble |
| MRCVYCHNAQLQEFAPGAVGVDDLVGLARRRIGLIDAVVISGGEPTAVPGLAEAICRIHDLGLPVGLHTCGYAPKRLATLVSQPESRPDWIGLDIKALPRHMHEITGCSPRVAQSCWESLAIIDAVGIEVQTRTTLWPGSVIEQNLRELEVMVAAQGHELVVQQARF | not soluble |
| MSLGGTGKVGVILPLLTSPFWQSYNDYVPKMAKSEGVDTLKTVNSNSDPSQQITDINNQLNQGVKGLVVAPLDSAAIEAGLDQADRKGVPVVAVDVAPEKGKVAMVVRADNVAYGEKACQYLGEQVTSGKVVQIMGDLASVNGRDRSEAFRTCVRKNYPKLKVLEIPAKWESDTAASKLDTLLNANPDIKGIYMQAGGVYLAPTLQTLKSKGLLKKTGEKGHITIVSNDGIPQEFDAIRKGQIDATVSQPADAYAKYGMYYIKAAMQGKTFKPGPTDHDSTIVKLPSGILEDQLPAPLVTKDNVDDAKLWGNTEGHHHHHH | soluble |
| MAGSKKSNRREEILQALAQMLESAEGASRITTAKLAKQVGVSEAALYRHFPSKARMFEGLIEFIEEALMTRINRILDDEKDTLERIRMVMHLILAFSERNPGLTRILSGHALMFENERLRERINQLFERIETQLRQILRERKIREGKSFPVEERILAAQILGQVEGSLNRFVRSDFKYQPTANFDEYWALLSAQIK | not soluble |
| MEPTENLDVCLATLRDTDRDRYLACLLSPADKRNALAALYAFNAEIARIRDSVREALPGEVRMQWWRDLVDGNPHGDSQSHPVAAALLTTIEHYRLPRPVLGNMIEARIFDLYDDLFEDRNALEGYAGETASALIQLASLVLSAEDAAHSAEAAGHAGVAQAMAGMLLLMPLHRRRGQVYIPADMLAAAGLDRETFLAGQDRQRIGIAVEIFAAHALDHIEKARRATISKNLFAAYLPVALSGPVIAAARKAGAGVFDGDLQLSQLRRQWLLAKASFLKRF | not soluble |
| MSINNTQNNCRFCSEISQANGEDPIGTAIAVEQYLIIEAAQPWPIPIWIEPDPMPQGVIEALNFIWEGGGTVRQLAIAPDKEYSHPGYTRVIYYRRPAKFFAQFEKQEFIVPHALLGSLALALLKNPEELPNFNQYRQQTNHIREILVCNHGNVDAACSRFGYPIYQKLRSEYAAATNSNLRFWRCSHFGGHEFAPTLVDLPQGQYWGHLKPEILDLLVLRNGSVKELYPYYRGWGGLSFFEQIAEREIWMLEGWKWLEYHKAGQVLASDEINQEWADVRIDFTTVDGNISSAYQARVEVKGSVMTAWKSGANPTLEEVKQYRVRNLVKLAL | not soluble |
| MGSDKIHHHHHHMKIALDPYMIRHLPLDRLPHAVAELGYDQIELSPRSDFLDWWVMPRATRARMTAFRHALRASGVGLASLQPMYRWASPFEDERQWAVRCWKKAIEVATEMECALMVSEFGRGASPERSVGERPGANPKELCEAAWFRSMDELLPILERERIVLSVEPHPEDWIEQLQPAIDIVTNLGSPSLKLSYIAPHTFYYGDDMAAMIAQAAPILAHVRVADTFDHRKSSQLRYIVNPPGSNQIRVHQHLDIGQGEIDWDTFFRALGDAGFDGVMSSCVFAWEDRAEASSRYMRDTIQRYVDRHFDRAAAR | not soluble |
| MLLAGLLASVEHGLNRVLRLDSTALPRLAALEGKVIEIDCRQPALQVFILPDEEGLMLAAHWQGEVDCRLRAPAGSLAQLALVKDKTAVLHSPQVELHGDSAVLLDLFGVLQDLELDWEHELQRWLGPVATAMLAGHIRLRARWTRQGLARFSQNLSEYLAEESRTLVGKREAEAAFSELDALKLDTERLEARLKRLSRSLDTSDNA | not soluble |
| MKKPVYLTPEGYRRLQEELNHLKTVKRQEISADFEQALEEGDLRENAGYDEARRAMWQNEARIAQLEDLLSRAVIVENGSFDQVALGCQVELETETGERLSLAIVGSHEADIFSGKISDESPLGQALLGKKVGDVVEIRGKKGAQVYTILEIKPL | soluble |
| MNIVLMGLPGAGKGTQAEQIIEKYEIPHISTGDMFRAAIKNGTELGLKAKSFMDQGNLVPDEVTIGIVHERLSKDDCQKGFLLDGFPRTVAQADALDSLLTDLGKKLDYVLNIKVEQEELMKRLTGRWICKTCGATYHTIFNPPAVEGICDKDGGELYQRIDDKPETVKNRLDVNMKQTQPLLDFYSQKGVLKDIDGQQDIKKVFVDINDLLGGLR | soluble |
| TIPISDKITLYIGRNSANNEKLTFGFAKPDDLWLHARGASGSHCVLKGATMRHTSEIQRAAEIAAWHSSAKHSELVPVICTQKKYLKK | not soluble |
| MGHHHHHHSHMPDNHKDPPDFNNLEMKLEERIELSREDQDIQSTSSSYPHCEALDHIVSMESTYDFHRQMAHKDLQKHRQEYEKASEKILELRKKLTDWNMDPKKRKWIEDDLDSLVRKQESALSRIRLAEKCTKRDLRNDPPPAYQPDDPLKDLRKNFEKKEKPTWNDVEKKKNGVFEFH | not soluble |
| MGSDKIHHHHHHMKVAIVHYWFVGMRGGEKVIEALCELYPQADIFTHVFVPEAVSDRIRRHRVTTSFINSLPRASSMYKSYLPLMPLALEHLDLSGYDLVISSESGPAKGIIPPPDALHVCYCHTPMRYIWNMYHDYRNGAGRLTKLLMPPLAHYLRMWDVSTASRVDSFIANSATVADRVRRYYRRDSVVIHPPVDTAVFTPVPASELGDYYLMAGELVAYKRPDLAVQAFNQIGRKLVVIGGGEMLNELKRIAGPNVTVMGSQPFEVLRHHYMHCRALIFPGEEDFGMVPVEAMAAGRPVIAFGKGGATETVVPGLSGLFFQAQEVEQIRSAILQLDDIEIDPAKISSHAARFGKQAFFDGFRSHIDQLLAAKAQATARNRG | not soluble |
| MSSQELVTLNVGGKIFTTRFSTIKQFPASRLARMLDGRDQEFKMVGGQIFVDRDGDLFSFILDFLRTHQLLLPTEFSDYLRLQREALFYELRSLVDLLNPYLLQPRPALVEVHFLSRNTQAFFRVFGSCSKTIEMLTGRITVFTEQPSAPTWNGNFFPPQMTLLPLPPQRPSYHDLVFQCGSDSTTDNQTGVRYVSIKPDNRKLANGTNVLGLLIDTLLKEGFHLVSTRTVSSEDKTECYSFERIKSPEVLITNETPKPETIIIPEQSQIKK | soluble |
| MAHHHHHHSLRMTQAKTYKVSRDETQHGKDSEHHLIAGYNSSMRLWHNEEPSDTADKTPRSHEYETLGYVISGQVELTVDGQTLTLSAGDSYRVPKGAEHVFRVTETLTAVEVTTPATNKEG | soluble |
| MNGQNFNEMLHDEQVFAEFMVPNAHTTPNLWRIQQQNQENQIPQNFQHLDFQYFQYQNQKQEVVHGAHCMGTVGSSWNEQVAVKKPSSSQSRKGGKNKEEAREKNHQKNKALLEMLNQVDPAVIDAEIEEQKEKQRLRKNRGRYDPIGAHGAQQGTRGVQNEVQYHRNFQNNNNNNS | not soluble |
| MSLNILDVMKIPAFENANLIAGKAGGEREVQHVNMMDAPDIVDFLHKNELLVTTAYHLKDHPHQLSELIRQMAKRGCAGLGIKTKRYLEDIPKEIIELADSYAFPIIELPEHIRLGDIVNATLSHILDMRSNEGHHHHHH | soluble |
